Experiments:
[1] = Stability of the 64Cu complex against EDTA; format: physicochemical; conditions: 0.1 M aqueous EDTA solution, radio-TLC on iTLC-SA plates
Method: The radiolabelling yield and stability of ^64Cu-labelled peptide conjugate were monitored with radio-TLC (thin layer chromatography). Thin layer chromatograms were scanned by using a thin layer analyser (Rita Star, Raytest, Germany). The purity of the radiolabelled peptide was assayed using analytical RP-HPLC. Radio-HPLC was performed on a Knauer Smartline System fitted with an activity detector (Ramona Star, Raytest, Germany) using an Aqua C18 column (Phenomenex, 4.6 mm × 250 mm, 5 µm, 125 Å) with a gradient eluent of H2O + 0.05% TFA (A) and acetonitrile + 0.05% TFA (B); in 20 min 0–60% of B, 10 min 60–95% of B, 1 mL/min.
^64Cu-NOTA-HsTX1[R14A] was prepared by incubating ~1.2–24 nmol (5–100 µg) of NOTA-HsTX1[R14A]/100 µL (1 mg/mL H2O stock solution) with ^64CuCl2 (~35–55 MBq) dissolved in 0.2 mL of 0.1 M 2-(N-morpholino)ethansulfonic acid (MES)/NaOH buffer (pH 6.0) at 37 °C for 30 min. Formation of the ^64Cu^II complex was verified by radio-TLC on iTLC-SA plates (instant TLC medium impregnated with […], Agilent Technology) using H2O + 0.1% HCOOH as mobile phase (^64Cu(HCOO)2, R f = 0.4, ^64Cu-NOTA-peptide, R f = 0). The stability of the ^64Cu^II formed was assessed in the presence of 0.1 M EDTA solution. Radio-TLC was performed with iTLC-SA plates (Agilent Technology) using 0.1 M aqueous EDTA solution [(^64Cu]Cu-NOTA-peptide, R f = 0, ^64Cu-EDTA, R f = 0.9).

[2] = Metabolite analysis by radio-TLC; format: in vivo; conditions: rat, i.v., one rat
Method: The analysis of [^64Cu]Cu-NOTA-HsTX1[R14A] degradation was analysed in one rat after single intravenous injection. The gas-anaesthetised (8% desflurane, 30% oxygen, air) rat was prepared on a heating bed for the blood sampling. A needle catheter was inserted in a tail vein and fixed for the injection of the radiotracer and supplementation of the withdrawn volume by E-153 (electrolyte infusion solution). A small incision on the right hind limb was made and a small superficial artery was exposed. A thin tube (polyethylene, 0.3 mm inner and 0.6 mm outer diameter) was inserted, moved to the femoral artery and fixed. Arterial blood samples were collected at 1, 3, 5, 10, 20, 30, 120 min p.i of the [^64Cu]Cu-NOTA-HsTX1[R14A]. After the end of experiment the anaesthetised animals were euthanised by infusion of KCl solution. For the differentiation of the activity distribution in the blood compartments (Fig. 3b) were blood samples centrifuged (3 min at 14,000 × g) to obtain the plasma (plasma total and blood cells in the precipitate). One kidney was homogenised with PBS (30% w/v) and then centrifuged as described for the blood samples. Urine was treated in analogy. All the supernatants from blood, kidney and urine samples were mixed with equal volume of MeCN to precipitate the protein fraction. The samples were again centrifuged (3 min at 14,000 × g), resulting in the precipitate the protein bound fraction (plasma proteins) and the supernatants (e.g. plasma water fraction) were analysed by radio-TLC with RP18 aluminium foil, MeCN/0.1% TFA mixed with H2O/0.1% TFA (v/v 1:1). The TLC plates were measured by radioluminography as described above. Aliquots of the whole blood samples and of all supernatants were measured for the ^64Cu activity concentration in a well counter.

[3] = Tolerability in the animal experiments; format: in vivo, rat; conditions: rats, injections of up to 0.1 mg peptide/kg body weight, also anesthetised animals

With `CSCC[C@@H]1NC(=O)[C@@H]2CSSC[C@H](NC(=O)[C@H](CO)NC(=O)[C@H](C)NC(=O)COCCOCCNC(=O)CN3CCN(CC(=O)O)CCN(CC(=O)O)CC3)C(=O)N[C@@H](CCCNC(=N)N)C(=O)N[C@@H]([C@@H](C)O)C(=O)N3CCC[C@H]3C(=O)N[C@@H](CCCCN)C(=O)N[C@@H](CC(=O)O)C(=O)N[C@H]3CSSC[C@H](NC(=O)[C@H](CCCCN)NC(=O)[C@H](CCCNC(=N)N)NC(=O)[C@H](CC(N)=O)NC1=O)C(=O)N[C@@H](CCCCN)C(=O)N[C@H]1CSSC[C@H](NC(=O)[C@@H]4CCCN4C(=O)[C@H](CC(=O)O)NC(=O)[C@H](C)NC3=O)C(=O)N[C@@H](C)C(=O)N[C@@H](CCCCN)C(=O)N[C@@H](CCC(=O)O)C(=O)N[C@@H]([C@@H](C)O)C(=O)NCC(=O)N[C@@H](CSSC[C@@H](C(N)=O)NC(=O)[C@H](CCCNC(=N)N)NC(=O)[C@H](CC(N)=O)NC1=O)C(=O)N1CCC[C@H]1C(=O)N[C@@H](Cc1ccc(O)cc1)C(=O)NCC(=O)N[C@@H](CCCCN)C(=O)N2` [[^64Cu]Cu-NOTA-HsTX1[R14A], metal not drawn] the “time for which the 64Cu(II) complex is stable with EDTA” value [1] was “at least 24 h”, the “plasma activity still present as original compound” value ([2]; arterial blood plasma, after 4 h) was 85% and the “metabolic stability in arterial blood plasma” value ([2]; first 2 h) was “without detectable radioactive metabolic products”. The “original compound in the kidneys” value ([2]; kidney extract, 4 h) was 31%, the “original compound in the urine” value ([2]; urine, 4 h) was 15% and the toxic effects [3] was “did not show toxic effects”.
